Data reported in US20250115680A1 (PROFOUNDBIO US, published 2025).

Experiments:
[1] = molecular target: T1, cynomolgus PTK7 extra-cellular domain (ECD) linked to His tag (cynomolgus monkey, UniProt A0A2K5VNI5 39-712); test: BLI (Octet RED), antibody on anti-human IgG Fc tips, PTK7 ECD-His 100 to 1.56 nM in solution, 1:1 global fit
T1 construct: extracellular domain; also called cPTK7-his; cynomolgus monkey PTK7-his protein; not shown: His tag
T1 sequence: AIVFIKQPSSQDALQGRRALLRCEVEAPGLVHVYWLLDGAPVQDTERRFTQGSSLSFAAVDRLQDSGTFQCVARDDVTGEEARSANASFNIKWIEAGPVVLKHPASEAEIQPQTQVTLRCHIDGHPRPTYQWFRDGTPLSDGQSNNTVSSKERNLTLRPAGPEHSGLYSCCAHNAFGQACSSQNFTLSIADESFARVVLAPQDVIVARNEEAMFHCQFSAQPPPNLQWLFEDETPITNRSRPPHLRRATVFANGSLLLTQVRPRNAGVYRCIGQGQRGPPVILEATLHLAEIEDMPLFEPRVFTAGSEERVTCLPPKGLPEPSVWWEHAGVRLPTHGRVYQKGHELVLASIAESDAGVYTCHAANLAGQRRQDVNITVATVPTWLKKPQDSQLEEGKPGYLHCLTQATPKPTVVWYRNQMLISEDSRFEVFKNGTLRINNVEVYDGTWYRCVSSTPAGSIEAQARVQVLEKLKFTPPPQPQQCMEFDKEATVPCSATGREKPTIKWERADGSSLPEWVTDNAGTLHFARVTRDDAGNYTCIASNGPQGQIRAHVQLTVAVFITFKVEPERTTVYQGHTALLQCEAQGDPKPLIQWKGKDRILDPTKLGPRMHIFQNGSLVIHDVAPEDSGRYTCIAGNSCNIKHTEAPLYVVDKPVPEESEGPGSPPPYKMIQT
Description: (§1) Recombinant proteins consisting of the PTK7 extra-cellular domain (ECD) linked to His tag were purchased from ACRO biosystems. […] Binding assays using varying concentrations from 100 nM down to 1.56 nM of recombinant proteins (human, cynomolgus) in solution were performed using Octet RED (ForteBio). Association time was set at 180 seconds and dissociation time was set at 300 seconds. Binding affinity was calculated using ForteBio Data Acquisition 6.3 software (ForteBio). Affinity was derived by fitting the kinetic data to a 1:1 Langmuir binding model utilizing global fitting algorithms.

[2] = molecular target: T2, human PTK7 extra-cellular domain (ECD) linked to His tag (human, UniProt Q13308 31-704); test: as above
T2 construct: extracellular domain; also called hPTK7-his; human PTK7-his protein; not shown: His tag
T2 sequence (looked up): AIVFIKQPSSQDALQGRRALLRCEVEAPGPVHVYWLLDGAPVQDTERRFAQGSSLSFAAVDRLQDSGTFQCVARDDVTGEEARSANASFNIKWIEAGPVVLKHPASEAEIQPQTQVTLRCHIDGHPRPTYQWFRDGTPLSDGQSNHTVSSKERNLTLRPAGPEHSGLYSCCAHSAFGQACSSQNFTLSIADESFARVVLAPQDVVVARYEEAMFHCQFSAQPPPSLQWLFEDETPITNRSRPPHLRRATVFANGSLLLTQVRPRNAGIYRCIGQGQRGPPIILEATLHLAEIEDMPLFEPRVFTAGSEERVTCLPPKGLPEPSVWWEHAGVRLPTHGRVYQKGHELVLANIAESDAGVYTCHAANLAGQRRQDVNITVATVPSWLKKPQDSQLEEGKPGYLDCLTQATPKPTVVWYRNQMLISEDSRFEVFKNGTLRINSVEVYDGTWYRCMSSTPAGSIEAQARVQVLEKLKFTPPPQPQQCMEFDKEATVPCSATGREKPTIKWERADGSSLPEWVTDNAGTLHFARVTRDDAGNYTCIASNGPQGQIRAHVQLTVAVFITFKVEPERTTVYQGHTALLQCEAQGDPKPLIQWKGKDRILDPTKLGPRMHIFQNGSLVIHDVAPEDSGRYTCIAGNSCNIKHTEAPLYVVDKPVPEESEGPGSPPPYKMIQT
Description: as §1

[3] = molecular target: T3, mouse PTK-7 recombinant protein (mouse, UniProt Q8BKG3 23-696, limits assumed); test: ELISA, plate-coated mouse PTK7 recombinant protein
T3 construct: also called mouse PTK7 protein
T3 sequence (looked up): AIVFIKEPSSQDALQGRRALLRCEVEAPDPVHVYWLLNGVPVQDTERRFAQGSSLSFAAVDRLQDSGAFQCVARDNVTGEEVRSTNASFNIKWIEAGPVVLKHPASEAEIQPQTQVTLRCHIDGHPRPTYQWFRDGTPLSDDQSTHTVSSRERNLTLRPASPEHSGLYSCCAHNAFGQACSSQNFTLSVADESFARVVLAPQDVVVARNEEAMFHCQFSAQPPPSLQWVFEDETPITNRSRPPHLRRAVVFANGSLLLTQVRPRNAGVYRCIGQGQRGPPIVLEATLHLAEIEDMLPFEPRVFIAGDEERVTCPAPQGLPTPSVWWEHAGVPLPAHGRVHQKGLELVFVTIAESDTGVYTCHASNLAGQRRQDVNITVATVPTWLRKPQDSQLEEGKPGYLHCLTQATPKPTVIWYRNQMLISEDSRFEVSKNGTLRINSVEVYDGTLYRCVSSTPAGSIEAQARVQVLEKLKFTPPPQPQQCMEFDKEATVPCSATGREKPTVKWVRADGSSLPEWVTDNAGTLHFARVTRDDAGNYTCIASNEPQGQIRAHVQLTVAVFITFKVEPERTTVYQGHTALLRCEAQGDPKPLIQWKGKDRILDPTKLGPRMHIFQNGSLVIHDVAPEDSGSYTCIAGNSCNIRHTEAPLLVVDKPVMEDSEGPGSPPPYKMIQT
Description: Binding specificity property was tested by ELISA according to a standard protocol. Specifically, 96-well micro-plates were coated with 2 μg/mL human, cynomolgus, mouse, and rat PTK-7 recombinant protein in PBS 100 μL per well, incubated overnight at 4° C. Plates were washed twice by TBS+0.5% Tween20. 200 μL of blocking buffer (2% BSA in PBS) was added to each well and incubated at 37° C. for 2 hours. Plates were washed using the buffer mentioned above. Serially diluted antibodies were added to the ELISA plate with 100 μL per well and incubated for 1 hour at room temperature. Then plates were washed for 3 times. After washing, HRP conjugated anti-human Fc antibody solution (abcam, ab98624, diluted with blocking buffer) was added to the plate with 100 μl per well. The plates were incubated at room temperature for 1 hour and then washed for 3 times. Then TMB solution was added to plates with 100 μl per well, placed at room temperature for 5-15 mins, then the stop solution (2M H₂SO₄) was added with 50 μl per well. Finally, the result was measured by absorbance at A₄₅₀ and A₆₃₀.

B1: humanized antibody 2C5 (antibody, V domains shown)
VH: QVQLVQSGAEVKKPGASVKVSCKASGYTFTDYYINWVRQAPGQGLEWMGDINPYSGGPVYNQKFMARVTMTVDKSINTAYMELSRLRSDDTAVYYCARGDYYGSNYNYWGQGTLVTVSS
VL: EIVLTQSPATLSVSPGERATLSCRASQNIGTSIHWYQQKPGQAPRLLIKFASESISGIPARFSGSGSGTEFTLTISSLQSEDIAVYYCQQSNNWPYTFGQGTKLEIK
notes: Only variable regions are tied to 2C5; It was detected with anti-human Fc, so it has a human Fc
In the case of B1, the Kd [1] is reported as 90.4 pM, the koff [1] is reported as 2.02e-05 s⁻¹ and the kon [1] is reported as 224000 M⁻¹ s⁻¹. The Kd [2] was ≤ 1.39 pM, the koff [2] was < 1e-07 s⁻¹ and the kon [2] was 34800 M⁻¹ s⁻¹.

B2: humanized antibody 2C8 (antibody, V domains shown)
VH: QIQLVQSGAEVKKPGASVKVSCKASGYTFTTYGMSWVRQAPGQGLEWMGWINTHSGVPTYVDEFKGRVTMTLDTSTSTAYMELSSLRSEDTAVYYCARSPFDYGSRGAWFVYWGQGTTVTVSS
VL: DVVMTQSPDSLAVSLGERATINCRSSQSIVHNSGDTYLEWYQQKPGQPPKLLIYKVSNRFPGVPDRFSGSGSGTDFTLTISSLQAEDLAVYYCFQGSHVPWTFGGGTKVEIK
notes: Only variable regions are tied to 2C8 by name; It was detected with anti-human Fc
B2: no binding [3].

B3: humanized antibody 13C4 (antibody, V domains shown)
VH: QVQLVESGGGLVKPGGSLRLSCAASGFAFSTYDMFWIRQAPGKGLEWVSTISSGGGYTYYPGSVKGRFTISRDNAKNSLYLQMNSLRAEDTAVYYCVRPLLRDSYFYFDVWGQGTMVTVSS
VL: EIVMTQSPATLSVSPGERATLSCRASSSVSSSYLHWYQQKPGQAPRLLIFRTSNLASGIPARFSGSGSGTEYTLTISSLQSEDAAVYYCQQYSGYPLTFGQGTKLEIK
notes: Only variable regions are tied to 13C4; It was detected with anti-human Fc
For B3, the Kd [1] was < 1 pM, the koff [1] was < 1e-07 s⁻¹ and the kon [1] was 54100 M⁻¹ s⁻¹. The Kd [2] was 798 pM, the koff [2] was 0.000132 s⁻¹ and the kon [2] was 166000 M⁻¹ s⁻¹. B3: no binding [3].
